Like-named read-outs stand apart in the source and are kept apart here. One block for each binder: values may come before it. Bridges are numbered along the chain shown (N, C = ends). Primed or numbered codes have the meaning given here. [ ]: non-standard residue; d: D form. Ygp = O-(8x polyethylene glycol-amino)-tyrosine; Yn3 = O-(9x polyethylene glycol-azido)-tyrosine; cleavable moiety, PEG9 = not defined here; PEG4′ = 4x polyethylene glycol; PEG9″ = 9x polyethylene glycol; hSer = N[C@@H](CCO)C(=O)O; Nle = CCCC[C@H](N)C(=O)O
Assays:
[1] = molecular target: T1, IL-2 receptor βγ complex on pan T cells (human, UniProt P14784 27-551; P31785 23-369); test: cell-based or functional assay
T1 sequence (looked up) 1: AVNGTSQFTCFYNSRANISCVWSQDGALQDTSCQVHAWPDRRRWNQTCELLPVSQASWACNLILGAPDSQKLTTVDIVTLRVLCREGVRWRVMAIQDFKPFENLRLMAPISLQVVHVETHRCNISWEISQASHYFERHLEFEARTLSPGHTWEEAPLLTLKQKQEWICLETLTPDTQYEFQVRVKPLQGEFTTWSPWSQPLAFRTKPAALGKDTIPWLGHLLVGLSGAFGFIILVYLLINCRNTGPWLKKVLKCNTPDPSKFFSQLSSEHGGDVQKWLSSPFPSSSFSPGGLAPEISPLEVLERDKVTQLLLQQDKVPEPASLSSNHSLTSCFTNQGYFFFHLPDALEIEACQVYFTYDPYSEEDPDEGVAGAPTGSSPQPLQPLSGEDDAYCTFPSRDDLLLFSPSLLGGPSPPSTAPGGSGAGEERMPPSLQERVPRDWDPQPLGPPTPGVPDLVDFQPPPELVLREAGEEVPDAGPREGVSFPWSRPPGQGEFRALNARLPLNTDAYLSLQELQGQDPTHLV
T1 sequence (looked up) 2: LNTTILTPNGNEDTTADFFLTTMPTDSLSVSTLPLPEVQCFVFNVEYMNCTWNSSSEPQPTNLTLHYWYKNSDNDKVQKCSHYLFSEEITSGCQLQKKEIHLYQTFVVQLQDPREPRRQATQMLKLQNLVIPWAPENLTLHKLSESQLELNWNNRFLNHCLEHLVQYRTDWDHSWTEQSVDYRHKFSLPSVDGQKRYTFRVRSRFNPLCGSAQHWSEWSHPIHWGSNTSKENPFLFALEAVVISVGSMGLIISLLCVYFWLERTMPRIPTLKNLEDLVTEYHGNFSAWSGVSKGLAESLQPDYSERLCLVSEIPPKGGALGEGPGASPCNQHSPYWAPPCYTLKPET

[2] = molecular target: T1, IL-2 receptor βγ complex on pan T cells; test: cell-based or functional assay; remark: listed apart in the source

B1: CMP-159, MMP2 cleaved (ligand)
chain: PLGLAGAPTSSSTKKTQLQLEHLLLDLE[Nle]ILNGINNYKNPKLTR[Nle]L[hSer][Yn3]KF[Ygp][Nle]PKKATELKHLQCLEEELKPLEEVL[hSer]LAQSKNFHLRPRDLISNINVIVLELKGSETTF[hSer]CEYADETATIVEFLNRWITFSQSIISTLT
modifications: not fully specified (bridges); ends and bridges not checked; also: cleaved by MMP2 (macrocycle opened), cut site not given here
Average EC50, pSTAT5 assay in pan T cells, MMP2 cleaved molecule [1]: 2.27 nM

B3: CMP-161 (ligand)
chain: PLGLAGAPTSSSTKKTQLQLEHLLLDLQ[Nle]ILEGINNYKNPKLTR[Nle]L[hSer][Yn3]KF[Ygp][Nle]PKKATELKHLQCLEEELKPLEEVL[hSer]LAQSKNFHLRPRDLISNINVIVLELKGSETTF[hSer]CEYADETATIVEFLNRWITFSQSIISTLT
modifications: linker N-32 via PEG9″; ends not checked
Average EC50, pSTAT5 assay in pan T cells, intact molecule [1]: 29.4 nM

B4: CMP-160, MMP2 cleaved (ligand)
chain: APTSSSTKKTQLQLEHLLLDLQ[Nle]ILEGINNYKNPKLTR[Nle]L[hSer][Yn3]KF[Ygp][Nle]PKKATELKHLQCLEEELKPLEEVL[hSer]LAQSKNFHLRPRDLISNINVIVLELKGSETTF[hSer]CEYADETATIVEFLNRWITFSQSIISTLT
modifications: ends and bridges not checked; also: cleavable moiety between Glu26 side chain and N-terminus (via PEG9) cut by MMP2, macrocycle opened, cut site not given here
Average EC50, pSTAT5 assay in pan T cells, MMP2 cleaved molecule [1]: 2.21 nM

B6: CMP-161, MMP2 cleaved (ligand)
chain: PLGLAGAPTSSSTKKTQLQLEHLLLDLQ[Nle]ILEGINNYKNPKLTR[Nle]L[hSer][Yn3]KF[Ygp][Nle]PKKATELKHLQCLEEELKPLEEVL[hSer]LAQSKNFHLRPRDLISNINVIVLELKGSETTF[hSer]CEYADETATIVEFLNRWITFSQSIISTLT
modifications: not fully specified; ends and bridges not checked; also: before cut, residues 1..32 linked via PEG9 (Glu32 side chain)
Average EC50, pSTAT5 assay in pan T cells, MMP2 cleaved molecule [1]: 3.59 nM

B7: CMP-163, MMP2 cleaved (ligand)
chain: APTSSSTKKTQLQLEHLLLDLQKILNGINNYKNPKLTR[Nle]L[hSer][Yn3]KF[Ygp][Nle]PKKATELKHLQCLEEELKPLEEVL[hSer]LAQSKNFHLRPRDLISNINVIVLELKGSETTF[hSer]CEYADETATIVEFLNRWITFSQSIISTLT
modifications: not fully specified (residue 23, N-terminus); ends and bridges not checked; also: macrocycle (Lys23 side chain - cleavable peptide - PEG4 - glutaryl - Ala1) cut by MMP2, cut site not given here
Average EC50, pSTAT5 assay in pan T cells, MMP2 cleaved molecule [2]: 0.76 nM

B8: CMP-160 (ligand)
chain: APTSSSTKKTQLQLEHLLLDLQ[Nle]ILEGINNYKNPKLTR[Nle]L[hSer][Yn3]KF[Ygp][Nle]PKKATELKHLQCLEEELKPLEEVL[hSer]LAQSKNFHLRPRDLISNINVIVLELKGSETTF[hSer]CEYADETATIVEFLNRWITFSQSIISTLT
modifications: linker N-26 via cleavable moiety, PEG9; ends not checked; also: cleavable moiety sequence not given here
Average EC50, pSTAT5 assay in pan T cells, intact molecule [1]: 27.8 nM

B9: CMP-159 (ligand)
chain: PLGLAGAPTSSSTKKTQLQLEHLLLDLE[Nle]ILNGINNYKNPKLTR[Nle]L[hSer][Yn3]KF[Ygp][Nle]PKKATELKHLQCLEEELKPLEEVL[hSer]LAQSKNFHLRPRDLISNINVIVLELKGSETTF[hSer]CEYADETATIVEFLNRWITFSQSIISTLT
modifications: linker N-28 via PEG4′; ends not checked
Average EC50, pSTAT5 assay in pan T cells, intact molecule [1]: 35.5 nM

B12: CMP-162 (ligand)
chain: APTSSSTKKTQLQLEHLLLDLQKILNGINNYKNPKLTR[Nle]L[hSer][Yn3]KF[Ygp][Nle]PKKATELKHLQCLEEELKPLEEVL[hSer]LAQSKNFHLRPRDLISNINVIVLELKGSETTF[hSer]CEYADETATIVEFLNRWITFSQSIISTLT
modifications: not fully specified (residue 23); ends and bridges not checked; also: cleavable moiety on Lys23 side chain, structure not given here
Average EC50, pSTAT5 assay in pan T cells, intact molecule [1]: 2.79 nM

B14: CMP-162, MMP2 cleaved (ligand)
chain: APTSSSTKKTQLQLEHLLLDLQKILNGINNYKNPKLTR[Nle]L[hSer][Yn3]KF[Ygp][Nle]PKKATELKHLQCLEEELKPLEEVL[hSer]LAQSKNFHLRPRDLISNINVIVLELKGSETTF[hSer]CEYADETATIVEFLNRWITFSQSIISTLT
modifications: not fully specified (residue 23); ends and bridges not checked; also: cleavable peptide on Lys23 cut by MMP2, remnant stays attached, cut site not given here
Average EC50, pSTAT5 assay in pan T cells, MMP2 cleaved molecule [1]: 0.758 nM

Continued, values first:

Average EC50, pSTAT5 assay in pan T cells, MMP2 cleaved molecule [2]: 5.39 nM
B2: CMP-169, MMP2 cleaved (ligand)
chain: APTSSSTKKTQLQLEHLLLDLQEILNGINNYKNPKLTR[Nle]L[hSer][Yn3]KF[Ygp][Nle]PKKATELKHLQCLEEELKPLEEVL[hSer]LAQSKNFHLRPRDLISNINVIVLELKGSETTF[hSer]CEYADETATIVEFLNRWITFSQSIISTLT
modifications: ends and bridges not checked; also: cleavable moiety between Lys9 and Glu23 side chains cut by MMP2, macrocycle opened, cut site not given here

Average EC50, pSTAT5 assay in pan T cells, intact molecule [2]: 94.7 nM
B5: CMP-300 (ligand)
chain: APTSSSTKKTQLQLEHLLLDLQEILNGINNYKNPKLTR[Nle]L[hSer][Yn3]KF[Ygp][Nle]PKKATELKHLQCLEEELKPLEEVL[hSer]LAQSKNFHLRPRDLISNINVIVLELKGSETTF[hSer]CEYADETATIVEFLNRWITFSQSIISTLT
modifications: bridge N-23; not fully specified (N-terminus, bridges); ends not checked; also: cleavable peptide of the bridge not defined

Average EC50, pSTAT5 assay in pan T cells, MMP2 cleaved molecule [2]: 0.61 nM
B10: CMP-164, MMP2 cleaved (ligand)
chain: APTSSSTKKTQLQLEHLLLDLQKILNGINNYKNPKLTR[Nle]L[hSer][Yn3]KF[Ygp][Nle]PKKATELKHLQCLEEELKPLEEVL[hSer]LAQSKNFHLRPRDLISNINVIVLELKGSETTF[hSer]CEYADETATIVEFLNRWITFSQSIISTLT
modifications: not fully specified (residue 23, N-terminus); ends and bridges not checked; also: macrocycle (Lys23 side chain - cleavable peptide - glutaryl - Ala1) cut by MMP2, cut site not given here

Average EC50, pSTAT5 assay in pan T cells, intact molecule [2]: 180 nM
B11: CMP-301 (ligand)
chain: APTSSSTKKTQLQLEHLLLDLQEILNGINNYKNPKLTR[Nle]L[hSer][Yn3]KF[Ygp][Nle]PKKATELKHLQCLEEELKPLEEVL[hSer]LAQSKNFHLRPRDLISNINVIVLELKGSETTF[hSer]CEYADETATIVEFLNRWITFSQSIISTLT
modifications: bridge N-23; not fully specified (N-terminus, bridges); ends not checked; also: cleavable peptide of the bridge not defined

Average EC50, pSTAT5 assay in pan T cells, intact molecule [2]: 53.4 nM
B13: CMP-169 (ligand)
chain: APTSSSTKKTQLQLEHLLLDLQEILNGINNYKNPKLTR[Nle]L[hSer][Yn3]KF[Ygp][Nle]PKKATELKHLQCLEEELKPLEEVL[hSer]LAQSKNFHLRPRDLISNINVIVLELKGSETTF[hSer]CEYADETATIVEFLNRWITFSQSIISTLT
modifications: bridge 9-23; not fully specified (residue 9, bridges); ends not checked; also: cleavable peptide of the bridge not defined

Average EC50, pSTAT5 assay in pan T cells, MMP2 cleaved molecule [2]: 1.73 nM
B15: CMP-300, MMP2 cleaved (ligand)
chain: APTSSSTKKTQLQLEHLLLDLQEILNGINNYKNPKLTR[Nle]L[hSer][Yn3]KF[Ygp][Nle]PKKATELKHLQCLEEELKPLEEVL[hSer]LAQSKNFHLRPRDLISNINVIVLELKGSETTF[hSer]CEYADETATIVEFLNRWITFSQSIISTLT
modifications: ends and bridges not checked; also: cleavable moiety between Glu23 side chain and N-terminus cut by MMP2, macrocycle opened, cut site not given here
